We go through three proteins from article PMC7911073, “Overproduction of Human Zip (SLC39) Zinc Transporters in Saccharomyces cerevisiae for Biophysical Characterization” (Cells, 2021).

Data set [1] deals with the molecule itself. The data set can be described thus: SDS-PAGE with Coomassie staining of SEC-pure samples (monomer and dimer bands); fractions of the main SEC peak in DDM + CHS.
Data set [2] deals with the molecule itself. Put plainly: SDS-PAGE with Coomassie staining and immunoblot by the tag (monomer and dimer bands); affinity-pure fractions (IMAC or StrepII-tag affinity) of N-terminal hZIP1 fusions solubilized in 2% DDM + 0.2% CHS; blot with 6xHis mAb-HRP or Strep-Tactin HRP. Background: Immunoblotting shows a protein as a band on a membrane.
Data set [3] deals with the molecule itself. Put plainly: SDS-PAGE with Coomassie staining and in-gel GFP fluorescence (monomer and dimer bands); IMAC eluate of hZIP1-TEV-GFP-His solubilized in 2% DDM + 0.68% CHS.

B1: StrepII-TEV-hZIP1 (natural protein, human, UniProt Q9NY26 1-324, looked up)
chain: MGPWGEPELLVWRPEAVASEPPVPVGLEVKLGALVLLLVLTLLCSLVPICVLRRPGANHEGSASRQKALSLVSCFAGGVFLATCLLDLLPDYLAAIDEALAALHVTLQFPLQEFILAMGFFLVLVMEQITLAYKEQSGPSPLEETRALLGTVNGGPQHWHDGPGVPQASGAPATPSALRACVLVFSLALHSVFEGLAVGLQRDRARAMELCLALLLHKGILAVSLSLRLLQSHLRAQVVAGCGILFSCMTPLGIGLGAALAESAGPLHQLAQSVLEGMAAGTFLYITFLEILPQELASSEQRILKVILLLAGFALLTGLLFIQI
notes: human ZIP1 (hZIP1), full-length, codon-optimized cDNA; UniProt Q9NY26; A TEV protease site stands between the StrepII tag and hZIP1; not cleaved here; Predicted MW 36.5 kDa; also called N-terminal hZIP1 fusion; not shown: StrepII, N-terminal, kept
On to B1, for which the binding result in data set [1] is reported as “binds”.

B2: His-TEV-hZIP1 (natural protein, human, UniProt Q9NY26 1-324, looked up)
chain: MGPWGEPELLVWRPEAVASEPPVPVGLEVKLGALVLLLVLTLLCSLVPICVLRRPGANHEGSASRQKALSLVSCFAGGVFLATCLLDLLPDYLAAIDEALAALHVTLQFPLQEFILAMGFFLVLVMEQITLAYKEQSGPSPLEETRALLGTVNGGPQHWHDGPGVPQASGAPATPSALRACVLVFSLALHSVFEGLAVGLQRDRARAMELCLALLLHKGILAVSLSLRLLQSHLRAQVVAGCGILFSCMTPLGIGLGAALAESAGPLHQLAQSVLEGMAAGTFLYITFLEILPQELASSEQRILKVILLLAGFALLTGLLFIQI
notes: human ZIP1 (hZIP1), full-length, codon-optimized cDNA; UniProt Q9NY26; A TEV protease site stands between the His8 tag and hZIP1; also called N-terminal hZIP1 fusion; source: S. cerevisiae PAP1500, purified from crude membranes solubilized in 2% DDM + 0.2% CHS (IMAC); not shown: His8, N-terminal, kept
For the protein B2, the binding result in data set [2] is listed as “binds”.

B3: hZIP1-TEV-GFP-His (natural protein, human, UniProt Q9NY26 1-324, looked up)
chain: MGPWGEPELLVWRPEAVASEPPVPVGLEVKLGALVLLLVLTLLCSLVPICVLRRPGANHEGSASRQKALSLVSCFAGGVFLATCLLDLLPDYLAAIDEALAALHVTLQFPLQEFILAMGFFLVLVMEQITLAYKEQSGPSPLEETRALLGTVNGGPQHWHDGPGVPQASGAPATPSALRACVLVFSLALHSVFEGLAVGLQRDRARAMELCLALLLHKGILAVSLSLRLLQSHLRAQVVAGCGILFSCMTPLGIGLGAALAESAGPLHQLAQSVLEGMAAGTFLYITFLEILPQELASSEQRILKVILLLAGFALLTGLLFIQI
notes: human ZIP1 (hZIP1), full-length, codon-optimized cDNA synthesized by GenScript; UniProt Q9NY26; A TEV protease site (ENLYFQ↓SQF) stands between hZIP1 and GFP-His8; the fusion could not be cleaved by TEV protease; Predicted MW 63.3 kDa; also called hZIP1 C-terminally fused to TEV-GFP-His-tag; SLC39 family member; source: S. cerevisiae PAP1500, in whole-cell lysate; also purified from crude …
As for B3, the binding result in data set [3] is reported as “binds”.
